Results reported in patent US20200317776A1 (published 2020).
Where two headings read alike, the source gives them in different places.

How the values were obtained:
[1] = biological target: T1, human TREM2 Fc fusion (entire TREM2 ECD; only one Fc arm fused to TREM2) (human, UniProt Q9NZC2 19-174); test: BLI, IgG, avid
T1 construct: also called huTREM2-Fc; recombinant hTREM2
T1 sequence: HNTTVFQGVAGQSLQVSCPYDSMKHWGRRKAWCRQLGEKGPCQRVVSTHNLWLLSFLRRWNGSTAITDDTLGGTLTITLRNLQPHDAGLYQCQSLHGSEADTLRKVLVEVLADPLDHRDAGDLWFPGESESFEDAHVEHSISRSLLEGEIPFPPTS
In short: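 Avid format: AHQ-loaded IgGs exposed to 100 nM human or cyno TREM2-Fc antigen, 3 min association, 3 min dissociation in buffer. Monovalent format: human TREM2-Fc loaded on AHQ sensors, exposed to 100 nM Fab. Kinetics fit to 1:1 model, run at 25° C.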

[2] = biological target: T2, human TREM2 expressed on cells (human, UniProt Q9NZC2 19-230); test: FACS, human DCs
T2 construct: BW5147.G.1.4 cells stably expressing human TREM2 together with Dap12, or endogenous TREM2 of primary human myeloid cells; also called huT2 BW; hTREM2 expressing cell line
T2 sequence: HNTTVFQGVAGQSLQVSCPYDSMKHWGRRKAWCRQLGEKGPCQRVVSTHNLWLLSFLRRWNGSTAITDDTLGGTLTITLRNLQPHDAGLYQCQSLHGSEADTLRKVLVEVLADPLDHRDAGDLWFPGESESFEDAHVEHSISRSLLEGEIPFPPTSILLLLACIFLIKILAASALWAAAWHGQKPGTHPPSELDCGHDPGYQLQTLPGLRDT
In short: (§1)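 Cells were BW5147.G.1.4 stably expressing human TREM2 with Dap12, or human monocyte-derived dendritic cells differentiated 6 days with GM-CSF and IL-4. Antibodies bound 1 h on ice in PBS+2% FBS, then PE anti-human secondary 30 min on ice; flow cytometry read-out as mean fluorescence intensity.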

[3] = biological target: T1, human TREM2 Fc fusion (entire TREM2 …); test: BLI, Fab, monovalent
[4] = biological target: T3, cynomolgus monkey TREM2 Fc fusion (entire TREM2 ECD; only one Fc arm fused to TREM2) (cynomolgus monkey, UniProt Q9NZC2 19-174 (human entry)); test: BLI, Fab, monovalent
T3 construct: also called cyno TREM2-Fc
T3 chain: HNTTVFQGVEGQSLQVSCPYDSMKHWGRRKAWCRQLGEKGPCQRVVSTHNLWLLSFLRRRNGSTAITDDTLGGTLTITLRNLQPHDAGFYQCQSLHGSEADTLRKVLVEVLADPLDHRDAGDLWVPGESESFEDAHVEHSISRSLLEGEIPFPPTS

[5] = biological target: T2, human TREM2 expressed on cells; test: FACS, hTREM2 BW cells
In short: as §1

[6] = biological target: T2, human TREM2 expressed on cells; test: FACS, hTREM2 BW cells; remark: listed apart in the source
[7] = biological target: T2, human TREM2 expressed on cells; test: cell-based or functional assay
[8] = biological target: T4, human TREM2/DAP12 fusion protein (human, UniProt O43914 41-113, limits assumed); test: cell-based or functional assay
[9] = biological target: T4, human TREM2/DAP12 fusion protein; test: cell-based or functional assay; remark: listed apart in the source
[10] = biological target: T2, human TREM2 expressed on cells; test: cell-based or functional assay; remark: listed apart in the source
[11] = biological target: T4, human TREM2/DAP12 fusion protein; test: cell-based or functional assay; remark: listed apart in the source
[12] = biological target: T4, human TREM2/DAP12 fusion protein; test: cell-based or functional assay; remark: listed apart in the source
[13] = biological target: T4, human TREM2/DAP12 fusion protein; test: cell-based or functional assay; remark: listed apart in the source
[14] = biological target: T2, human TREM2 expressed on cells; test: FACS, hTREM2 expressing cell line
[15] = biological target: T1, human TREM2 Fc fusion (entire TREM2 …); test: BLI
[16] = biological target: T2, human TREM2 expressed on cells; test: FACS, hTREM2 BW cells; remark: listed apart in the source
[17] = biological target: T4, human TREM2/DAP12 fusion protein; test: cell-based or functional assay; remark: listed apart in the source
[18] = biological target: T2, human TREM2 expressed on cells; test: cell-based or functional assay; remark: listed apart in the source
mouse TREM2 = biological target: T5, mouse TREM2 (mouse, UniProt Q99NH8 19-227); test: no effect on Dap12 phosphorylation in WT mice
T5 construct: Endogenous TREM2 of wild-type mice (peritoneal macrophages); also called murine TREM2
T5 sequence: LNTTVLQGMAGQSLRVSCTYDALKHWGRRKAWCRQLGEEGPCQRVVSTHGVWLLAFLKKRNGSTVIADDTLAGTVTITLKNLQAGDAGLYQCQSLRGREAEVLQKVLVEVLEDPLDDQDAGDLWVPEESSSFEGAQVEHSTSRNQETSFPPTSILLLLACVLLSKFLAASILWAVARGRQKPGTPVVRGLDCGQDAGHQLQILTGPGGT

[19] = biological target: T4, human TREM2/DAP12 fusion protein; test: cell-based or functional assay; remark: listed apart in the source

B1: AL2p-31 (antibody, V domains shown)
VH: QVQLVQSGAEVKKPGSSVKVSCKASGYAFSSQWMNWVRQAPGQGLEWMGRIYPGGGDTNYARKFQGRVTITADESTSTAYMELSSLRSEDTAVYYCARLLRNQPGESYAMDYWGQGTLVTVSS
VL: GVVMTQTPLSLSVTPGQPASISCRSSQSLVHSNGYTYLHWYLQKPGQSPQLLIYKVSNRRSGVPDRFSGSGSGTDFTLKISRVEAEDVGVYYCSQSTRVPYTFGQGTKLEIK
notes: Fab and IgG formats under one id
B1 was tested, and the Kd [1] was 0.317 nM, the MFI [2] was 288 MFI and the Kd [3] was 4.03 nM. For the same binder, the Kd [4] was 3.44 nM, the Kd [5] was 1 nM and the Kd [6] was 1.23 nM. The “Survival huDCs plate bound IgG, AUC” value [7] was 1.21e+06 AUC, the “Luciferase activation plate bound 33 nM IgG, FOC” value [8] was 28.2 FOC and the “Luciferase activation soluble 10 nM IgG, FOC” value [8] was 2.83 FOC. The “luciferase activation, soluble IgG, EC50” value [9] was 6.92 nM, the “DC viability (AUC)” value [10] was 860000 AUC and the “Mac viability (AUC)” value [10] was 83700 AUC. For the same binder, the “BW Luc assay plate bound 7.3 nM IgG, FOC” value [11] was 7.49 FOC, the “BW Luc assay soluble 7.3 nM IgG, FOC” value [11] was 4.48 FOC and the “luciferase activation, plate bound IgG, EC50” value [12] was 10.1 nM. The “luciferase activation, soluble IgG, EC50” value [12] was 1.14 nM, the “Reporter assay plate bound IgG (EC50, nM)” value [13] was 10.1 nM and the “Reporter assay soluble IgG (EC50, nM)” value [13] was 11.4 nM. For the same binder, the Kd [14] was 0.56 nM.

B2: AL2p-47 (antibody, V domains shown)
VH: QVQLVQSGAEVKKPGSSVKVSCKASGYAFSSDWMNWVRQAPGQGLEWMGRIYPGEGDTNYARKFHGRVTITADESTSTAYMELSSLRSEDTAVYYCARLLRNKPGESYAMDYWGQGTLVTVSS
VL: DVVMTQTPLSLSVTPGQPASISCRTSQSLVHSNAYTYLHWYLQKPGQSPQLLIYKVSNRVSGVPDRFSGSGSGTDFTLKISRVEAEDVGVYYCSQSTRVPYTFGQGTKLEIK
notes: Fab and IgG formats under one id (explicit huIgG1 is m97); also called AL2-47
For B2, the “fold improvement in affinity (KD) vs AL2p” value [15] was about 10 fold, the MFI [2] was 372 MFI and the Kd [3] was 14.8 nM. The Kd [4] was 16.3 nM, the Kd [5] was 1.09 nM and the “DC viability (AUC)” value [10] was 771000 AUC. For the same binder, the “Mac viability (AUC)” value [10] was 22100 AUC, the “BW Luc assay plate bound 7.3 nM IgG, FOC” value [11] was 3.54 FOC and the “BW Luc assay soluble 7.3 nM IgG, FOC” value [11] was 3.48 FOC. For the same binder, the “luciferase activation, plate bound IgG, EC50” value [12] was 206 nM, the “luciferase activation, soluble IgG, EC50” value [12] was 104 nM and the “Reporter assay plate bound IgG (EC50, nM)” value [13] was 206 nM. For the same binder, the “Reporter assay soluble IgG (EC50, nM)” value [13] was 105 nM and the Kd [14] was 1.22 nM.

B3: AL2p-58 (antibody, V domains shown)
VH: QVQLVQSGAEVKKPGASVKVSCKASGYAFSSQWMNWVRQAPGQRLEWIGRIYPGGGDTNYAGKFQGRVTITADTSASTAYMELSSLRSEDTAVYYCARLLRNQPGESYAMDYWGQGTLVTVSS
VL: DVVMTQSPDSLAVSLGERATINCRSSQSLVHSNRYTYLHWYQQKPGQSPKLLIYKVSNRFSGVPDRFSGSGSGTDFTLKISRVEAEDVGVYYCSQSTRVPYTFGQGTKLEIK
notes: Fab and IgG formats under one id (explicit huIgG1 is m95, PSEG is m96)
With B3 the “fold improvement in affinity (KD) vs AL2p” value [15] was about 10 fold, the Kd [3] was 13.3 nM and the Kd [4] was 12.4 nM. The Kd [5] was 0.51 nM, the “luciferase activation, plate bound IgG, EC50” value [12] was 36 nM and the “luciferase activation, soluble IgG, EC50” value [12] was 14 nM. For the same binder, the “Reporter assay plate bound IgG (EC50, nM)” value [13] was 36.1 nM, the “Reporter assay soluble IgG (EC50, nM)” value [13] was 14 nM and the Kd [14] was 0.51 nM.

B4: AL2p-58 huIgG1 (antibody)
heavy: not shown
light: DVVMTQSPDSLAVSLGERATINCRSSQSLVHSNRYTYLHWYQQKPGQSPKLLIYKVSNRFSGVPDRFSGSGSGTDFTLKISRVEAEDVGVYYCSQSTRVPYTFGQGTKLEIKRTVAAPSVFIFPPSDEQLKSGTASVVCLLNNFYPREAKVQWKVDNALQSGNSQESVTEQDSKDSTYSLSSTLTLSKADYEKHKVYACEVTHQGLSSPVTKSFNRGEC
notes: also called AL2p-58 huIgG1 WT
B4 was tested, and the “Bmax (MFI)” value [16] was 196000 MFI, the Kd [16] was 0.63 nM and the “Plate bound IgG, fold over unstimulated control (25 nM IgG)” value [17] was 9.88 fold. The “Soluble IgG, EC50” value [17] was 4.83 nM, the “Soluble IgG, fold over control IgG (17 nM IgG)” value [17] was 9.97 fold and the “EC50 viability, dendritic cells D558” value [18] was 0.288 nM. For the same binder, the “EC50 viability, dendritic cells D559” value [18] was 0.341 nM, the “EC50 viability, dendritic cells D560” value [18] was 0.271 nM and the “EC50 viability, macrophages D558” value [18] was 5 pM. For the same binder, the “EC50 viability, macrophages D559” value [18] was 0.359 nM, the “EC50 viability, macrophages D560” value [18] was 0.469 nM and the binding result (mouse TREM2) was “no binding”.

B5: AL2p-58 huIgG1 PSEG (antibody)
heavy: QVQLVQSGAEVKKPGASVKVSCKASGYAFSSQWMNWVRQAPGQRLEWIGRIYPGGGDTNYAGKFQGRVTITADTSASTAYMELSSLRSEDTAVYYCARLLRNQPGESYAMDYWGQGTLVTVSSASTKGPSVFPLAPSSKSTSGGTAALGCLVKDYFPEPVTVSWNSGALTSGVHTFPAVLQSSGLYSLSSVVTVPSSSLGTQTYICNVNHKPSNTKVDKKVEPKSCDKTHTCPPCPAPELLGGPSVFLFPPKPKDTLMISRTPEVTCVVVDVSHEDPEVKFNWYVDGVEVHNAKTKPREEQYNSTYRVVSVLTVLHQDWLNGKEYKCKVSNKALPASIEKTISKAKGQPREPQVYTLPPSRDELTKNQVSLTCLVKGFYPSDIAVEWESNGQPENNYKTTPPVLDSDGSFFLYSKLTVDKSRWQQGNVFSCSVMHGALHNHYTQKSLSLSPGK
light: DVVMTQSPDSLAVSLGERATINCRSSQSLVHSNRYTYLHWYQQKPGQSPKLLIYKVSNRFSGVPDRFSGSGSGTDFTLKISRVEAEDVGVYYCSQSTRVPYTFGQGTKLEIKRTVAAPSVFIFPPSDEQLKSGTASVVCLLNNFYPREAKVQWKVDNALQSGNSQESVTEQDSKDSTYSLSSTLTLSKADYEKHKVYACEVTHQGLSSPVTKSFNRGEC
notes: IgG1 with P331S and E430G; also called AL2p-58 PSEG
B5 was tested, and the “plate bound signal activation, fold over AL2p” value [19] was about 10 fold over AL2p, the “Bmax (MFI)” value [16] was 140000 MFI and the Kd [16] was 0.36 nM. For the same binder, the “Plate bound IgG, fold over unstimulated control (25 nM IgG)” value [17] was 12.9 fold, the “Soluble IgG, EC50” value [17] was 2.99 nM and the “Soluble IgG, fold over control IgG (17 nM IgG)” value [17] was 12.1 fold. For the same binder, the “EC50 viability, dendritic cells D558” value [18] was 0.206 nM, the “EC50 viability, dendritic cells D559” value [18] was 0.276 nM and the “EC50 viability, dendritic cells D560” value [18] was 0.206 nM. The “EC50 viability, macrophages D558” value [18] was 1 pM, the “EC50 viability, macrophages D559” value [18] was 0.322 nM and the “EC50 viability, macrophages D560” value [18] was 0.426 nM.
